The results in this text go back to article PMC7534470 (The Plant Cell, 2020).

In the assay the target is T1, MBP-COP1 (Arabidopsis thaliana, UniProt P43254 1-675).
T1 sequence (looked up): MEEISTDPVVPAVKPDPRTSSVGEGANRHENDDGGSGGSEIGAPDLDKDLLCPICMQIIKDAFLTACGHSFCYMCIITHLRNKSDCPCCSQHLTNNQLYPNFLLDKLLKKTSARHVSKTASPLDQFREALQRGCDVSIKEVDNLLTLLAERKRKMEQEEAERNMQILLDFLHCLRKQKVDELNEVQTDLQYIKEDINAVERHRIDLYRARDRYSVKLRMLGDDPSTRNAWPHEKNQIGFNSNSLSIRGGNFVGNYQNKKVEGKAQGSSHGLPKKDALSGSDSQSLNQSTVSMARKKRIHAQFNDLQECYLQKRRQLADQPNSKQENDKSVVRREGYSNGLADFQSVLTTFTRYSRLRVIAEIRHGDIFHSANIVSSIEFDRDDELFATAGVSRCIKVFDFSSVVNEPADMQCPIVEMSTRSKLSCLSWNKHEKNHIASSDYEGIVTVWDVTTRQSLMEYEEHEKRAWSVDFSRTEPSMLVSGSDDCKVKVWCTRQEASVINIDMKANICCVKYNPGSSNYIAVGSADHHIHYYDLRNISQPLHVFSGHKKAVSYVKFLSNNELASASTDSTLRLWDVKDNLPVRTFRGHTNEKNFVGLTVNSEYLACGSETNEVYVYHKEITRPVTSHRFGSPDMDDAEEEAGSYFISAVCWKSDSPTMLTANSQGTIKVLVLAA
The assay can be described thus: pull-down.

B1: His-COR27 (natural protein, Arabidopsis thaliana, UniProt Q8L8T7 1-246, looked up)
chain: MVGDYRGRFSSRRFSDDSDDSSDDASSVEGETTSSMYSAGKEYMETEWTNEKHSLYLKSMEASFVDQLYNSLGALGKNENVSESTRFGSGRKPSQEQFKVLHDGFWQKINVKQPEHRINGRHGGNSHEFLRSPWIKHYKPLVKTQIPVTDEPENQVVSSSNGKKGICSSGSASSLKQLSSHSRDHDQISVGEAEVSDQNFVNEGIKGENGSSKKMKTVMMSESSSTDQVVPLNKLLQHDVNLKSVS
On to B1, for which the binding result is given as “binds”.
